From patent publication US20230090114A1, “METHODS FOR PROMOTING WEIGHT LOSS” (89BIO LTD., priority 2020, published 2023)

Assay: Food intake and meal pattern (daily and METABOpack sessions)
Assay type: in vivo, CD-1 mice
Excerpt: During the METABOpack™ sessions, animals were housed singly in the Physiocage System (Panlab/Harvard apparatus), which was composed of: • 8 physiocages (LE1301) • 8 Air tight lids for mouse (LE1303) • 8 grid floors for mouse (LE1317) • 8 Feeding bottles for mouse (LE1306) • 2 Air supply and switching units for up to 4 home cages each (LE4004FL) • 1 O2/CO2 analyzer (LE405) • 1 acquisition software suite, METABOLISM (V3.0).
From T1 to T28, vehicle and 89BIO100 (at the 3 different doses) were administrated by subcutaneous (SC) injection three times a week, while the treatment with liraglutide was administrated by subcutaneous route, twice a day, every day. It was important to notice that the first dosing was done just before the […] (at 9:00 AM) and the second dosing was done 8 hours after the first one (at 5:00 PM). Throughout the treatment period, FI and BW were daily measured.
In the present project, a METABOpack™ session was consisted of a 12-hour period of acclimation followed by a 48-hour period of recording of the respiratory exchanges, FI, water intake (WI) and locomotor activity of each animal.
Following this acclimation period, the parameters cited above were automatically and simultaneously recorded for 48 hours, except for body weight that was measured manually every day.
The METABOpack™ sessions were conducted at the start (T1-2), the middle (T14-15) and the end (T26-27) of the treatment period.
Meal pattern analysis was performed on high-resolution recordings of food intake obtained during the METABOpack™ sessions. The Physiocage system allowed recording food intake with an accuracy of 1 measure per second and a precision of 0.02 g. The physiocages were equipped with a system allowing to precisely collect the spillage of the animals, by the mean of a platform located under the food dispenser. This platform and the spillages it contains, were permanently weighted by the system and the values added to the total weight of the food dispenser. With this system, the progressive decrease in the food dispenser net weight only reflected the food consumption of the animals. The analysis was performed by plotting data every minute. Each weight variation of the feeding container (transition from one stable value to another) was considered as a “bout”, with each bout separated from each other bout by an “inter-bout interval”. A meal consisted of at least one bout, with each meal separated from each other meal by a “post-meal interval”. For the purpose of this study, a meal was defined as any feeding episode causing a change in food weight of 0.02 g and separated by at least 5 min from any subsequent episode. Based on this criterion, the following parameters were calculated for each experimental group: […]

[1] = T1, WD and NP, three doses, vs Liraglutide
[2] = T2, WD, three doses, vs Liraglutide
[3] = T2, WD, three doses, vs vehicle
[4] = first meal on T14, 3 mg/kg, vs 1 mg/kg
[5] = first meal on T14, 3 mg/kg, vs vehicle

B1: Mutant FGF21-GalNAc-SA-PEG-20 kDa (conjugate)
chain: MHPIPDSSPLLQFGGQVRQRYLYTDDAQQTEAHLEIREDGTVGGAADQSPESLLQLKALKPGVIQILGVKTSRFLCQRPDGALYGSLHFDPEACSFRELLLEDGYNVYQSEAHGLPLHLPGNKSPHRDPAPRGPARFLPLPGLPPALPEPPGILAPQPPDVGSSDPLSMVGPTQGASPSYAS
With B1 the mean meal size (BIO89-100-treated mice) was “no change”, the mean meal number (BIO89-100-treated mice, related to increased FC) was “increase in mean meal number” and the cumulative food intake (T1, 0.3 mg/kg, vs vehicle, at 5 h, 6 h, 15-24 h) was “increased”. The cumulative food intake (T1, 1 mg/kg, vs vehicle, at 1 h, 3 h, 18-24 h) was “increased”, the cumulative food intake (T1, 3 mg/kg, vs vehicle, 10-12 h and 14-17 h) was “increased” and the mean meal size (T1, DP, 0.3 mg/kg, vs Liraglutide) was “increased”. For the same molecule, the mean meal size (T1, DP, 3 mg/kg, vs 0.3 and 1 mg/kg) was “decreased”, the mean meal size (T1, DP, 3 mg/kg, vs vehicle) was “reduced” and the mean food intake (T1, DP, between groups) was “no significant difference”. The mean food intake (T1, NP and WD, between the three 89BIO-100 groups) was “No significant difference”, the mean food intake (T1, NP and WD, whatever the dose, vs Liraglutide) was “increase in mean food intake” and the mean food intake (T1, NP, 3 mg/kg, vs vehicle) was “higher”. For the same molecule, the mean meal number [1] was “increased”, the mean satiety ratio [1] was “decreased” and the mean food intake (T1, WD, 0.3 and 1 mg/kg, vs vehicle) was “increased”. For the same molecule, the cumulative food intake (T1, between the three 89BIO-100 groups) was “no significant difference”, the cumulative food intake (T1, three doses, vs Liraglutide, 5-24 h) was “increase in cumulative food intake” and the cumulative food intake (T2, 0.3 mg/kg, vs Liraglutide, at 5 h, 6 h, 10-24 h) was “increased”. For the same molecule, the cumulative food intake (T2, 1 mg/kg, vs Liraglutide, 4-24 h) was “increased”, the cumulative food intake (T2, 3 mg/kg, vs 0.3 mg/kg, at 1 h and 2 h only) was “slightly increased” and the cumulative food intake (T2, 3 mg/kg, vs Liraglutide, over 24 h except at 4 h) was “increased”. For the same molecule, the cumulative food intake (T2, 3 mg/kg, vs vehicle, over 24 h except at 4 h) was “increased”, the cumulative food intake (T2, 0.3 and 1 mg/kg, vs vehicle, 13-24 h) was “increase in cumulative food intake” and the cumulative food intake (T2, 1 vs 3 mg/kg and 0.3 vs 1 mg/kg) was “no significant difference”. The mean food intake (T2, DP, between groups) was “no significant difference”, the mean food intake (T2, NP and WD, between the three 89BIO-100 groups) was “No significant difference” and the mean food intake (T2, NP and WD, whatever the dose, vs Liraglutide) was “increase in mean food intake”. The mean food intake (T2, NP, 3 mg/kg, vs vehicle) was “higher”, the mean meal number (T2, WD, 0.3 and 3 mg/kg, vs vehicle) was “increased” and the mean meal number [2] was “increased”. For the same molecule, the mean post-meal interval [2] was “decreased”, the satiety ratio [2] was “decreased” and the mean food intake [3] was “increased”. The mean post-meal interval [3] was “shorter”, the mean food intake (T15, WD only, whatever the dose, vs Liraglutide) was “increased” and the mean food intake (T15, WD only, whatever the dose, vs vehicle) was “increased”. For the same molecule, the mean meal duration (T27, 3 mg/kg, vs vehicle, 0.3 and 1 mg/kg groups) was “significant increase in mean meal duration”, the mean post-meal interval (first meal on T14, 0.3 mg/kg, vs vehicle) was “reduction in mean post-meal interval” and the mean satiety ratio (first meal on T14, 1 mg/kg, vs 0.3 mg/kg) was “higher”. For the same molecule, the mean post-meal interval (first meal on T14, 1 mg/kg, vs Liraglutide) was “increase in mean post-meal interval”, the mean post-meal interval [4] was “reduction” and the mean satiety ratio [4] was “reduction”. The mean post-meal interval [5] was “decrease”, the mean satiety ratio [5] was “decrease” and the mean post-meal interval (first meal on T15, 1 mg/kg, vs Liraglutide) was “increase in mean post-meal interval”. The mean post-meal interval (first meal on T15, 3 mg/kg, vs 1 mg/kg) was “lower”, the mean post-meal interval (first meal on T15, 3 mg/kg, vs vehicle) was “decrease in mean post-meal interval” and the “mean first meal latency” value (first meal on T15, three doses, vs vehicle) was “reduced”. For the same molecule, the “mean first meal latency” value (first meal on T26, 3 mg/kg, vs Liraglutide) was “increase in mean first meal latency”, the “mean first meal latency” value (first meal on T26, 0.3 and 1 mg/kg, vs vehicle) was “increase in mean first meal latency” and the “increase in FC” value (naive CD-1 mice, 0.3-3.0 mg/kg SC 3qW x 4 weeks, up to) was “up to +94%”. The food intake (summary, significantly increased on T1, T2 and T15) was “increased”.
